Data from patent publication US6399321B1 (National Research Council of Canada, priority 1999, dated 2002).

Legend:
acid phosphatase = assay: Glucosylation of purified acid phosphatase by wild-type and mutant RUGT; type: biochemical, Saccharomyces cerevisiae; conditions: purified acid phosphatase as substrate
Protocol: Based on sequence alignments with other nucleoside diphosphate glycosyltransferases, four independent RUGT mutants D1334A, D1336A, Q1429A and N1433A were designed, amplified by PCR, cloned and sequenced to confirm the presence of diagnostic PstI, BsrBI, XbaI and NaeI sites respectively (FIG. 8).
Acid phosphatase was the major substrate glycoprotein used to determine RUGT activity in this study. RNase B was prepared as described elsewhere (Zapun, 1998). Soybean agglutinin (Sigma) was denatured by heating at 100° C. for 15 minutes. Bovine thyroglobulin (Sigma) was denatured with 8M urea and dialyzed against ddH2O. […] Reactions were either analyzed by SDS-PAGE followed by fluorography using Amplify (Amersham Life Science Inc.) or precipitated with ice-cold 10% trichloroacetic acid (TCA), washed twice with TCA and the pellets resuspended in 50 μl 1M Tris-HCl pH 8.0 before counting in a beta counter to quantitate the incorporation of ^3H-glucose in acid phosphatase.

RUGT [1] = biological target: T1, RUGT (Rattus norvegicus, UniProt Q9JLA3); assay: Glucosyltransferase assay: incorporation of 3H-glucose in glycoprotein acceptor-substrates by RUGT; type: biochemical; conditions: for RUGT activity towards denatured versus native substrate: reduced unfolded, heat-treated or urea-treated versus native protein
T1 construct: honeybee melittin signal peptide (21 aa, replaces the first 18 aa of RUGT) (N, cleaved yes); made in house; host or cells: Sf9 insect cells, baculovirus (pFastBac1); purified from culture medium
T1 sequence (Q9JLA3 43-1547 limits assumed): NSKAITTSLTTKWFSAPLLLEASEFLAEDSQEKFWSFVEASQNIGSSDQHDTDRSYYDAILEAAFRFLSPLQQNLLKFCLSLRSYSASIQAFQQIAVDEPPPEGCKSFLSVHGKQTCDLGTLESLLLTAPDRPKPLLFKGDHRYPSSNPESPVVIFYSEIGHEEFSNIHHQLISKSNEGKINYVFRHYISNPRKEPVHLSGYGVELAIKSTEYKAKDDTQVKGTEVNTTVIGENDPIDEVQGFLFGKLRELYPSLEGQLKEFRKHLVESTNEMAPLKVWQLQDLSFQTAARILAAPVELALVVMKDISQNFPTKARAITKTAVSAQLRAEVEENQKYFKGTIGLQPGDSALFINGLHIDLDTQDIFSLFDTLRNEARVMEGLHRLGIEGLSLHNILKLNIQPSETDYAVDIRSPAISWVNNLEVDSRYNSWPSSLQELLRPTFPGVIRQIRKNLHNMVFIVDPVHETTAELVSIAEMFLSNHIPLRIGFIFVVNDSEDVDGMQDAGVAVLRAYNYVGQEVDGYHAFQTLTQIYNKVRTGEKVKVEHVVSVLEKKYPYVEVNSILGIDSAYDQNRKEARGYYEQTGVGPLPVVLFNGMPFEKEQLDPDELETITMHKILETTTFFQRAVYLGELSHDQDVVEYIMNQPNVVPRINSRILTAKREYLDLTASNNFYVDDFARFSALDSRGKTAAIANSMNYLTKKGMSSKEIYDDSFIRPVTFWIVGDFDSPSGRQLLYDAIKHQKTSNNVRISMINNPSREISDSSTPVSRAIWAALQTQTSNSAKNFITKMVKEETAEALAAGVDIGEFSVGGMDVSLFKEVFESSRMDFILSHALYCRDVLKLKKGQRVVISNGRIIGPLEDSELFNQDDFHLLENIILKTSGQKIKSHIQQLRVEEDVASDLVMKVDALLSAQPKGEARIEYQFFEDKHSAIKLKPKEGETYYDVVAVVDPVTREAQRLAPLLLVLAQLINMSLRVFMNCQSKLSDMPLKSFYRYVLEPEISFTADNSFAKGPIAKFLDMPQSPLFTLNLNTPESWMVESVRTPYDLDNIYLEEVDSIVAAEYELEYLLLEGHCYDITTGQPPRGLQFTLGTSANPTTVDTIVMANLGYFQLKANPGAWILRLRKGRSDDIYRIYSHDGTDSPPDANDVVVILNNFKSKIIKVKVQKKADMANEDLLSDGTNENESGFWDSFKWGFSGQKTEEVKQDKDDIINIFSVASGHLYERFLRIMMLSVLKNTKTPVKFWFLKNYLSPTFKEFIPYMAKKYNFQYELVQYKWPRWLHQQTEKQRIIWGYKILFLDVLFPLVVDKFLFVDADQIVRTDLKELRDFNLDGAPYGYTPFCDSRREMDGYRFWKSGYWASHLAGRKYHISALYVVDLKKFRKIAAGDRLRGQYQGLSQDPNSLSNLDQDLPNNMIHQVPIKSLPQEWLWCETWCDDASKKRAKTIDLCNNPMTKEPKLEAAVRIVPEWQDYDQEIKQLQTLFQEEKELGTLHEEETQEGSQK
Protocol: Acid phosphatase was the major substrate glycoprotein used to determine RUGT activity in this study. RNase B was prepared as described elsewhere (Zapun, 1998). Soybean agglutinin (Sigma) was denatured by heating at 100° C. for 15 minutes. Bovine thyroglobulin (Sigma) was denatured with 8M urea and dialyzed against ddH2O. […] Amersham Life Science Inc.) and incubated at 37° C. for 2 hours. Reactions were either analyzed by SDS-PAGE followed by fluorography using Amplify (Amersham Life Science Inc.) or precipitated with ice-cold 10% trichloroacetic acid (TCA), washed twice with TCA and the pellets resuspended in 50 μl 1M Tris-HCl pH 8.0 before counting in a beta counter to quantitate the incorporation of ^3H-glucose in acid phosphatase.

RUGT [2] = biological target: T1, RUGT; assay: Kinetics measurements: Km of UDP-glucose and acid phosphatase for RUGT; type: biochemical; conditions: in the presence of 5 μM UDP-glucose; read-out: apparent Km for acid phosphatase
Protocol: Acid phosphatase was the major substrate glycoprotein used to determine RUGT activity in this study. […] Soybean agglutinin (Sigma) was denatured by heating at 100° C. for 15 minutes. Bovine thyroglobulin (Sigma) was denatured with 8M urea and dialyzed against ddH2O. […] Reactions were either analyzed by SDS-PAGE followed by fluorography using Amplify (Amersham Life Science Inc.) or precipitated with ice-cold 10% trichloroacetic acid (TCA), washed twice with TCA and the pellets resuspended in 50 μl 1M Tris-HCl pH 8.0 before counting in a beta counter to quantitate the incorporation of ^3H-glucose in acid phosphatase.
Glucosylation reactions were incubated at 37° C. and TCA precipitated at various times up to 120 minutes to determine the rate of incorporation of ^3H-glucose in acid phosphatase.

Molecule	activity relative to the wild-type enzyme (incorporation of 3H-glucose) (acid phosphatase)	RUGT activity towards denatured versus native substrate (RUGT [1])	also measured
D1336A: recombinant rat UGGT (RUGT) mutant, D1336 mutated to alanine	no activity at all		
soybean agglutinin: soybean agglutinin (Sigma), denatured by heating at 100° C.; acceptor substrate [reference compound]		better substrates than the native proteins	
D1334A: recombinant rat UGGT (RUGT) mutant, D1334 mutated to alanine	no activity at all		
N1433A: recombinant rat UGGT (RUGT) mutant, N1433 mutated to alanine	approximately 2%		
bovine thyroglobulin: bovine thyroglobulin (Sigma), denatured with 8M urea; acceptor substrate [reference compound]		better substrates than the native proteins	
Q1429A: recombinant rat UGGT (RUGT) mutant, Q1429 mutated to alanine	~20%		
RNase B: bovine pancreatic ribonuclease B, glycoprotein acceptor substrate (protein, UniProt P61823 27-150, looked up, glycoform B, bovine pancreatic ribonuclease B, glycoprotein acceptor substrate) Ribonuclease pancreatic: KETAAAKFERQHMDSSTSAASSSNYCNQMMKSRNLTKDRCKPVNTFVHESLADVQAVCSQKNVACKNGQTNCYQSYSTMSITDCRETGSSKYPNCAYKTTQANKHIIVACEGNPYVPVHFDASV		greater activity towards reduced unfolded RNase B than towards the native protein	
acid phosphatase: yeast acid phosphatase purified from S. cerevisiae DT111, with asparagine-linked [GlcNAc]2-(Man)9 glycans; UGGT acceptor substrate (protein) GTIPLGKLADVDKIGTQKDIFPFLGGAGPYYSFPGDYGISRDLPEGCEMKQLQMVGRHGERYPTVSLAKTIKSTWYKLSNYTRQFNGSLSFLNDDYEFFIRDDDDLEMETTFANSDDVLNPYTGEMNAKRHARDFLAQYGYMVENQTSFAVFTSNSKRCHDTAQYFIDGLGDQFNITLQTVSEAESAGANTLSACNSCPAWDYDANDDIVNEYDTTYLDDIAKRLNKENKGLNLTSTDASTLFSWCAFEVNAKGYSDVCDIFTKDELVHYSYYQDLHTYYHEGPGYDIIKSVGSNLFNASVKLLKQSEIQDQKVWLSFTHDTDILNFLTTAGIIDDKNNLTAEYVPFMGNTFHRSWYVPQGARVYTEKFQCSNDTYVRYVINDAVVPIETCSTGPGFSCEINDFYDYAEKRVAGTDFLKVCNVSSVSNSTELTFYWDWNTTHYNASLLRQ			incorporation of 3H-glucose on a molar basis relative to RNase B (RUGT [1]; assuming MW of 14 kDa for RNase B): 130 ×; incorporation of 3H-glucose on a molar basis relative to SBA (RUGT [1]; assuming MW of 31 kDa for SBA): 100 ×; incorporation of 3H-glucose on a molar basis relative to Tg (RUGT [1]; assuming MW of 303 kDa for Tg): 4 times; Km (RUGT [2]): 0.3 µM
